Reference: US20230265183A1 (MABWELL SHANGHAI BIOSCIENCE, published 2023)
Where “and” joins values, the source holds several entries; their conditions need not be identical. Identical values can stand only once. Like-named read-outs stand apart in the source and are kept apart here.

B1: 5M21 hz00 (antibody, human IgG1, kappa, V domains shown)
VH: QVQLVQSGAEVKKPGASVKVSCKASGYTFTTYYIHWVRQAPGQRLEWMGWIYPGNVNTKYNEKFKGRVTITRDTSASTAYMELSSLRSEDTAVYYCARGLYYFDYWGQGTLVTVSS
VL: DIQMTQSPSSLSASVGDRVTITCKASQSVSNDVAWYQQKPGKVPKLLIYYASNRYTGVPSRFSGSGSGTDFTLTISSLQPEDVATYYCQQDYSSPYTFGGGTKVEIKR
notes: Humanized
B2: 5M21 hz10 (antibody, human IgG1, kappa, V domains shown)
VH: QVQLVQSGAEVKKPGASVKVSCKASGYTFTTYYIHWVRQAPGQRLEWMGWIYPGNVNTKYNEKFKGRVTITADKSASTAYMELSSLRSEDTAVYYCARGLYYFDYWGQGTLVTVSS
VL: DIQMTQSPSSLSASVGDRVTITCKASQSVSNDVAWYQQKPGKVPKLLIYYASNRYTGVPSRFSGSGSGTDFTLTISSLQPEDVATYYCQQDYSSPYTFGGGTKVEIKR
notes: Humanized
B3: 5M21 hz11 (antibody, human IgG1, kappa, V domains shown)
VH: QVQLVQSGAEVKKPGASVKVSCKASGYTFTTYYIHWVRQAPGQRLEWMGWIYPGNVNTKYNEKFKGRVTITADKSASTAYMELSSLRSEDTAVYYCARGLYYFDYWGQGTLVTVSS
VL: DIQMTQSPSSLSASVGDRVTITCKASQSVSNDVAWYQQKPGKVPKLLIYYASNRYTGVPSRFSGSGSGTDFTLTISSLQPEDLATYFCQQDYSSPYTFGGGTKVEIKR
notes: Humanized
B4: 5M21 hz01 (antibody, human IgG1, kappa, V domains shown)
VH: QVQLVQSGAEVKKPGASVKVSCKASGYTFTTYYIHWVRQAPGQRLEWMGWIYPGNVNTKYNEKFKGRVTITRDTSASTAYMELSSLRSEDTAVYYCARGLYYFDYWGQGTLVTVSS
VL: DIQMTQSPSSLSASVGDRVTITCKASQSVSNDVAWYQQKPGKVPKLLIYYASNRYTGVPSRFSGSGSGTDFTLTISSLQPEDLATYFCQQDYSSPYTFGGGTKVEIKR
notes: Humanized
B5: chimeric antibody 42D20 xiIgG (antibody, V domains shown)
VH: QVQLKESGPGLVAPSQSLSISCTVSGFSLIDYGVSWIRQPPGKGLEWLGVIWGDGKIYYNSVLKSRLSISKDNSKSQVFLKMNSLQTDDTAMYYCAKQGGLLFYAMDYWGQGTSVTVSS
VL: DIVMTQSPSSLAMSVGQRVTMNCKSSQSLLNSYSQKNYLAWYQQKPGQSPKLLIYFASTRESGVPDRFIGSGSETDFTLTISSVQAEDLADYFCQQHYNTPFTFGSGTKLEIKR
B6: Enfortumab-E (antibody, human IgG1, kappa, V domains shown)
VH: EVQLVESGGGLVQPGGSLRLSCAASGFTFSSYNMNWVRQAPGKGLEWVSYISSSSSTIYYADSVKGRFTISRDNAKNSLSLQMNSLRDEDTAVYYCARAYYYGMDVWGQGTTVTVSS
VL: DIQMTQSPSSVSASVGDRVTITCRASQGISGWLAWYQQKPGKAPKFLIYAASTLQSGVPSRFSGSGSGTDFTLTISSLQPEDFATYYCQQANSFPPTFGGGTKVEIKR
modifications: vcMMAE conjugated to the TECP-reduced antibody; residues not stated; DAR 4.0±1
B7: 42D20 hz00 (antibody, V domains shown)
VH: QVQLQESGPGLVKPSETLSLTCTVSGFSLIDYGVSWIRQPPGKGLEWIGVIWGDGKIYYNSVLKSRVTISVDTSKNQFSLKLSSVTAADTAVYYCARQGGLLFYAMDYWGQGTLVTVSS
VL: DIVMTQSPDSLAVSLGERATINCKSSQSLLNSYSQKNYLAWYQQKPGQPPKLLIYFASTRESGVPDRFSGSGSGTDFTLTISSLQAEDVAVYYCQQHYNTPFTFGAGTKLELKR
notes: Humanized
B8: 42D20 hz03 (antibody, V domains shown)
VH: QVQLQESGPGLVKPSETLSLTCTVSGFSLIDYGVSWIRQPPGKGLEWIGVIWGDGKIYYNSVLKSRVTISVDTSKNQFSLKLSSVTAADTAVYYCARQGGLLFYAMDYWGQGTLVTVSS
VL: DIVMTQSPDSLAVSLGERATINCKSSQSLLNTYSQKNYLAWYQQKPGQSPKLLIYFASTRESGVPDRFSGSGSETDFTLTISSLQAEDLAVYFCQQHYNTPFTFGAGTKLELKR
notes: Humanized
B9: 42D20 hz20 (antibody, V domains shown)
VH: QVQLQESGPGLVKPSETLSLTCTVSGFSLIDYGVSWIRQPPGKGLEWIGVIWGEGKIYYNSVLKSRVTISKDNSKSQVSLKLSSVTAADTAVYYCAKQGGLLFYAMDYWGQGTLVTVSS
VL: DIVMTQSPDSLAVSLGERATINCKSSQSLLNSYSQKNYLAWYQQKPGQPPKLLIYFASTRESGVPDRFSGSGSGTDFTLTISSLQAEDVAVYYCQQHYNTPFTFGAGTKLELKR
B10: 42D20 hz02 (antibody, V domains shown)
VH: QVQLQESGPGLVKPSETLSLTCTVSGFSLIDYGVSWIRQPPGKGLEWIGVIWGDGKIYYNSVLKSRVTISVDTSKNQFSLKLSSVTAADTAVYYCARQGGLLFYAMDYWGQGTLVTVSS
VL: DIVMTQSPDSLAVSLGERATINCKSSQSLLYSYSQKNYLAWYQQKPGQSPKLLIYFASTRESGVPDRFSGSGSETDFTLTISSLQAEDLAVYFCQQHYNTPFTFGAGTKLELKR
notes: Humanized
B11: 42D20 hz23 (antibody, V domains shown)
VH: QVQLQESGPGLVKPSETLSLTCTVSGFSLIDYGVSWIRQPPGKGLEWIGVIWGEGKIYYNSVLKSRVTISKDNSKSQVSLKLSSVTAADTAVYYCAKQGGLLFYAMDYWGQGTLVTVSS
VL: DIVMTQSPDSLAVSLGERATINCKSSQSLLNTYSQKNYLAWYQQKPGQSPKLLIYFASTRESGVPDRFSGSGSETDFTLTISSLQAEDLAVYFCQQHYNTPFTFGAGTKLELKR
notes: Humanized
B12: 42D20 hz01 (antibody, V domains shown)
VH: QVQLQESGPGLVKPSETLSLTCTVSGFSLIDYGVSWIRQPPGKGLEWIGVIWGDGKIYYNSVLKSRVTISVDTSKNQFSLKLSSVTAADTAVYYCARQGGLLFYAMDYWGQGTLVTVSS
VL: DIVMTQSPDSLAVSLGERATINCKSSQSLLNSYSQKNYLAWYQQKPGQSPKLLIYFASTRESGVPDRFSGSGSETDFTLTISSLQAEDLAVYFCQQHYNTPFTFGAGTKLELKR
notes: Humanized
B13: 42D20 hz21 (antibody, V domains shown)
VH: QVQLQESGPGLVKPSETLSLTCTVSGFSLIDYGVSWIRQPPGKGLEWIGVIWGEGKIYYNSVLKSRVTISKDNSKSQVSLKLSSVTAADTAVYYCAKQGGLLFYAMDYWGQGTLVTVSS
VL: DIVMTQSPDSLAVSLGERATINCKSSQSLLNSYSQKNYLAWYQQKPGQSPKLLIYFASTRESGVPDRFSGSGSETDFTLTISSLQAEDLAVYFCQQHYNTPFTFGAGTKLELKR
notes: Humanized

Legend:
[1] = target: T1, human Nectin-4 (human, UniProt Q96NY8 32-510); assay: cell-based or functional assay
T1 sequence (looked up): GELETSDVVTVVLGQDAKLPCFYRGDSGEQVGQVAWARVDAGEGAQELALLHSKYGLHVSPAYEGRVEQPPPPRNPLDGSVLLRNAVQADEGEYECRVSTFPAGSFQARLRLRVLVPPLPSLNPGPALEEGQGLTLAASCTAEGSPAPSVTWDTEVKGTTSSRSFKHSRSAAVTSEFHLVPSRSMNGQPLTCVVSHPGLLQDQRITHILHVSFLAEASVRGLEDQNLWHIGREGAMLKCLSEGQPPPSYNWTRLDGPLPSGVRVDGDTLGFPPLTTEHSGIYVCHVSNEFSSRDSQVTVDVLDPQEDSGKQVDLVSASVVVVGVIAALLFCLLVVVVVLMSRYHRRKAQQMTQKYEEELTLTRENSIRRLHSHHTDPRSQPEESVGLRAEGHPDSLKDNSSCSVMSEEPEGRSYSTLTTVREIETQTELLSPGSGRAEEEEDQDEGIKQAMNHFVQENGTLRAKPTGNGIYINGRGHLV

[2] = target: T1, human Nectin-4; assay: FACS on BT474 cells
Method: (§1) The solutions of different concentrations were added to 384-well plates, 10 µl per well.
(§2) BT474 cells (breast cancer cells) expressing Nectin-4 on the cell surface were collected by centrifugation at 100 g at room temperature for 5 minutes, and then the cells were washed with PBS containing 0.5% BSA once and were centrifuged at 100 g at room temperature for 5 minutes. […] After incubation at 4° C. for 1 hour, fluorescently labeled goat anti-human IgG secondary antibody was added. After continued incubation at 4° C. for 1 hour, mean fluorescence readings of the cell populations were analyzed by a flow cytometer.
(§3) The experiment results of the binding of engineered humanized molecules of the present disclosure to BT474 cells by FACS assay are shown in panels 3B and 3C in FIG. 3 and Tables 6 and 7.

[3] = target: T2, His-tagged human NECTIN4 (human, UniProt Q96NY8 32-349); assay: SPR (BIAcore S200), antigen on CAP chip, antibody as analyte, 1:1 fit
T2 construct: Antigen of the BIAcore assay; also called antigen; recombinant NECTIN4 protein; not shown: His tag
T2 sequence: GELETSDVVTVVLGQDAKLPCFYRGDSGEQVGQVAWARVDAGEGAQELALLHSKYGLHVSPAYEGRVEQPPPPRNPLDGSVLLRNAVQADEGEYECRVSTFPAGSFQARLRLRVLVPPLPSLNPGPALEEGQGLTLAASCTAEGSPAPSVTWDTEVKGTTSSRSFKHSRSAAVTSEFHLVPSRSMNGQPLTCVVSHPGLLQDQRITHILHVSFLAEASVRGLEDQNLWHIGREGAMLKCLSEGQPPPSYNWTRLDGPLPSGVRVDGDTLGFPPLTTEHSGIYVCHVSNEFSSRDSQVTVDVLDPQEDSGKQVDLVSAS
Method: Interactions between the antibodies and the antigen were measured using a BIAcore instrument S200 from GE. Referring to the instructions provided in Biotin Capture Kit from GE Healthcare, the analytical channel and the control sample channel on CAP sensor chip were first coupled with antigen i.e. His-tagged human NECTIN4, then samples containing antibodies (diluted 3-fold from an initial concentration of 20 nM respectively and solutions of each antibody of 8 concentrations were obtained totally, and the concentration 0.741 nM was set to be repeated) were allowed to flow through both the analytical channel and the sample channel, and the photoreactions upon antibody-antigen binding were measured. Association constant Kon and dissociation constant Koff and affinity constant KD of each antibody were finally obtained by instrument software fitting (1:1 binding mode) analysis.

[4] = target: T1, human Nectin-4; assay: cell-based or functional assay; remark: listed apart in the source
[5] = target: T1, human Nectin-4; assay: FACS on BT474 cells; remark: listed apart in the source
Method: as §1, §2, §3

[6] = target: T1, human Nectin-4; assay: cell-based or functional assay; remark: listed apart in the source
[7] = target: T1, human Nectin-4; assay: cell-based or functional assay; remark: listed apart in the source
[8] = target: T1, human Nectin-4; assay: cell-based or functional assay; remark: listed apart in the source
[9] = target: T1, human Nectin-4; assay: FACS on BT474 cells; remark: listed apart in the source
Method: as §1, §2

Row | Binder | Endocytosis efficiency (%) [1] [%] | EC50 [2] [µg/mL] | Endocytosis efficiency (%) [4] [%] | EC50 [5] [µg/mL] | further results
1 | B1 | 54.8 | 52.2 |  |  | 
2 | B2 | 64.8 | 44.3 |  |  | 
3 | B3 | 64.4 | 44.5 |  |  | 
4 | B4 | 62.2 | 48.1 |  |  | 
5 | B5 |  |  | 54 | 0.077 | Kd [3]: 1.01 nM; koff [3]: 0.000798 s⁻¹; kon [3]: 790000 M⁻¹ s⁻¹
6 | B6 |  |  |  |  | EC50 (ng/ml), inhibition of proliferation of BT474 cells [6]: 5.37 ng/mL and 3.95 ng/mL and 5.11 ng/mL and 5.3 ng/mL; Endocytosis efficiency (%) [7]: 58.9%; EC50 (ng/ml), inhibition of proliferation of BT474 cells [8]: 2.26 ng/mL and 3.86 ng/mL and 2.91 ng/mL and 3.17 ng/mL; EC50 [9]: 0.23 µg/mL
7 | B7 |  |  | 39.1 | 1.34 | 
8 | B8 |  |  | 41.1 | 0.0676 | 
9 | B9 |  |  | 42 |  | 
10 | B10 |  |  |  | 0.112 | 
11 | B11 |  |  | 45 | 0.0503 | 
12 | B12 |  |  | 41.5 | 0.132 | 
13 | B13 |  |  | 43.9 | 0.285 | 
